Target: p170, truncated ORF2-encoded protein of aa 439-608 from hepatitis E virus CCJD-517 (hepatitis E virus CCJD-517 (HEV-3))
Test: non-reducing SDS-PAGE

p170, truncated ORF2-encoded protein of aa 439-608 from hepatitis E virus CCJD-517 (domain or fragment)
stoichiometry N: 2
